Consider four sequences from patent publication US10562947B2, “Compositions and methods for preventing or treating diseases, conditions or processes characterized by aberrant fibroblast proliferation and extracellular matrix deposition” (MOERAE MATRIX, INC., priority 2011, dated 2020).

Experiment in all cases: Kinase Profiling Assay
Common to all, as to type: biochemical
What all share (details): 100 μM peptide

Experiment [1] deals with WNK2(h) (Homo sapiens, UniProt Q9Y3S1). The method in brief: (§1)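 Each kinase in a 266-member human panel is assayed, in duplicate, for activity in the presence of MK2 inhibitory peptides to gauge specificity.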
The target of experiment [2] is PKBα(h) (Homo sapiens, UniProt P31749). The method in brief: as §1
For experiment [3], the target named is T1, JAK2(h) (Homo sapiens, UniProt O60674).
T1 construct: purchased Millipore
An outline of the steps:
as §1

Experiment [4] deals with T2, ULK3(h) (Homo sapiens, UniProt Q6PHR2).
T2 sequence (Q6PHR2 1-472): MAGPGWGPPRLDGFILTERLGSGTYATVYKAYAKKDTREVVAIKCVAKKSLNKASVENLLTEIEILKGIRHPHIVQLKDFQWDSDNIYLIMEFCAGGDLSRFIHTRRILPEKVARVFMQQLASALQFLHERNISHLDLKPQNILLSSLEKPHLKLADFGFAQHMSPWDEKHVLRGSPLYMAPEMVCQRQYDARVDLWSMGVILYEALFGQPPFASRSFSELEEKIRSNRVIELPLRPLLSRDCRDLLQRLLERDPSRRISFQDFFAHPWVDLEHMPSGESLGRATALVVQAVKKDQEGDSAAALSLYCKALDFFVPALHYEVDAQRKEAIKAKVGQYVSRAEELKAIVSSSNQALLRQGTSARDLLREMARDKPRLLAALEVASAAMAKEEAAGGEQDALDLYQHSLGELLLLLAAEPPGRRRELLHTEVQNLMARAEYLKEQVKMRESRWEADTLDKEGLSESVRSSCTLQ
The method in brief: as §1

Experiment [5] concerns the target EGFR(h) (Homo sapiens, UniProt P00533). An outline of the steps: as §1
The target in experiment [6] is MSK2(h) (Homo sapiens, UniProt O75676). The method in brief:
as §1

In experiment [7] the target is T3, Hck(h) activated (Homo sapiens, UniProt P08631).
T3 construct: purchased Millipore
The method in brief:
as §1

Experiment [8] addresses Met(D1246N)(h) (Homo sapiens, UniProt P08581, D1228N). An outline of the steps:
as §1

The target of experiment [9] is DAPK2(h) (Homo sapiens, UniProt Q9UIK4). An outline of the steps: as §1
Experiment [10] deals with Met(h) (Homo sapiens, UniProt P08581). The method in brief:
as §1

In experiment [11] the target is CaMKIIγ(h) (Homo sapiens, UniProt Q13555). The method in brief: as §1
For experiment [12], the target named is T4, NEK3(h) (Homo sapiens, UniProt P51956).
T4 sequence (P51956 1-506): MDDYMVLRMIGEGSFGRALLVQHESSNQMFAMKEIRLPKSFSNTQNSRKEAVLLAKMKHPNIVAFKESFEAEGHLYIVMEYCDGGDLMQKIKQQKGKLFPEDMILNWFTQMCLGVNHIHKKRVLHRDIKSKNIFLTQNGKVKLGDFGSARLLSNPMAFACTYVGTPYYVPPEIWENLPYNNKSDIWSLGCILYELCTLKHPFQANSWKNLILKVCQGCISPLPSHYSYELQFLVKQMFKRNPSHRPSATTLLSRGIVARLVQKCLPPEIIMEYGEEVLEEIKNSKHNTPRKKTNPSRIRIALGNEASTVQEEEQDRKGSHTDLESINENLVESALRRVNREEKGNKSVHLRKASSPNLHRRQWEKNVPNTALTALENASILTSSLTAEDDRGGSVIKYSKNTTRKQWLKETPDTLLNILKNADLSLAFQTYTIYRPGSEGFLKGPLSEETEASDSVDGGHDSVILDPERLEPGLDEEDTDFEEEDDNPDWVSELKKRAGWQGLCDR
An outline of the steps:
as §1

In experiment [13] the target is T5, Pyk2(h) (Homo sapiens, UniProt Q14289).
T5 construct: purchased Millipore (IC50 Profiler Express service)
The method in brief: as §1

Experiment [14] addresses T6, PDK1(h) (Homo sapiens, UniProt O15530).
T6 sequence (O15530 1-556): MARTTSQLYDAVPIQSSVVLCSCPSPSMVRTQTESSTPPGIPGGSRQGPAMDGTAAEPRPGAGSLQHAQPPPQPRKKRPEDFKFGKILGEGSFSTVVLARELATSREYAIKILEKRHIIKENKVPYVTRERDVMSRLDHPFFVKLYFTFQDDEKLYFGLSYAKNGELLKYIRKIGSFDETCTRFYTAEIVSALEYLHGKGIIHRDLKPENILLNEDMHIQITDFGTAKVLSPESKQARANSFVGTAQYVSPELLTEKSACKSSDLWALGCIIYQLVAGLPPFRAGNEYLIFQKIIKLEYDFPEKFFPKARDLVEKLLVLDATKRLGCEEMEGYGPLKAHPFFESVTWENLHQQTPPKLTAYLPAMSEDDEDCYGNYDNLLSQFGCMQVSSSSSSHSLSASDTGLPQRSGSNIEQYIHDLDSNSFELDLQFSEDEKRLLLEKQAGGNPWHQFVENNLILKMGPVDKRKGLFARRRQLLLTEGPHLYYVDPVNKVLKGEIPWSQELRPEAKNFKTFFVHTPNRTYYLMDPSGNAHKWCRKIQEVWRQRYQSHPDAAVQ
The method in brief: as §1

Experiment [15] addresses Flt1(h) (Homo sapiens, UniProt P17948). An outline of the steps: as §1
Experiment [16] concerns the target DAPK1(h) (Homo sapiens, UniProt P53355). The method in brief: as §1
The target in experiment [17] is Abl(h) (Homo sapiens, UniProt P00519). The method in brief: as §1
Experiment [18] deals with T7, Plk3(h) (Homo sapiens, UniProt Q9H4B4).
T7 construct: purchased Millipore (IC50 Profiler Express service)
An outline of the steps:
as §1

Experiment [19] deals with cKit(D816H)(h) (Homo sapiens, UniProt P10721, D816H). An outline of the steps: as §1
The target of experiment [20] is SAPK2a(h) (Homo sapiens, UniProt Q16539). The method in brief:
as §1

Sequence of Abl(h) (P00519 whole entry): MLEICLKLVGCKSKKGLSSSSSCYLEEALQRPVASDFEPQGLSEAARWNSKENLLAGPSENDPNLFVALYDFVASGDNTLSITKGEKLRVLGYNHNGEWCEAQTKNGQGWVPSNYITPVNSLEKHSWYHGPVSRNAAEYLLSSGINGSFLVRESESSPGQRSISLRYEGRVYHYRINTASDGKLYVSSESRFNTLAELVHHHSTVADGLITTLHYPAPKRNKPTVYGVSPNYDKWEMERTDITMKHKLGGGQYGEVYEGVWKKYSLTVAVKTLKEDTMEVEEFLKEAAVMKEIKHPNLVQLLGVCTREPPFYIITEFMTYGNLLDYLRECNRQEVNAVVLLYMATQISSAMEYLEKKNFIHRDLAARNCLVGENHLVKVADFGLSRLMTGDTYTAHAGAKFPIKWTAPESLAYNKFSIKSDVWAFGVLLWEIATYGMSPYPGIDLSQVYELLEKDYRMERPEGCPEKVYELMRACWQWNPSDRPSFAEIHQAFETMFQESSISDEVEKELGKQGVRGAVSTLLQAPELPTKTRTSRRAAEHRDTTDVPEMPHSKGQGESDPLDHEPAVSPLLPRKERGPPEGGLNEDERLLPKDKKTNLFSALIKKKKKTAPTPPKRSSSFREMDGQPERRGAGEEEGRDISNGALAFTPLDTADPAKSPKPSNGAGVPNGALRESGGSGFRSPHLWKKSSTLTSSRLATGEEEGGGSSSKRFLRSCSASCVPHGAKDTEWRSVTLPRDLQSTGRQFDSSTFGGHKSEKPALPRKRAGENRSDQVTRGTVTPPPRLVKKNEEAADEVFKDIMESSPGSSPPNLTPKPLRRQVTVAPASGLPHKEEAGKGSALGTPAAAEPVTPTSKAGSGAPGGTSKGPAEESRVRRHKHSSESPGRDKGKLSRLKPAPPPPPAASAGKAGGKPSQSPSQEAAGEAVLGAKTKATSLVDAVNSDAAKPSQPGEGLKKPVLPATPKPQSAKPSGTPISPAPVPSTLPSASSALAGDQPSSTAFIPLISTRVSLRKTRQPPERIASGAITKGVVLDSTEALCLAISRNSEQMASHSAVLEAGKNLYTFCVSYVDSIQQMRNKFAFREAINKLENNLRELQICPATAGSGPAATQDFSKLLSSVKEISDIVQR
T3 sequence (P08631 whole entry): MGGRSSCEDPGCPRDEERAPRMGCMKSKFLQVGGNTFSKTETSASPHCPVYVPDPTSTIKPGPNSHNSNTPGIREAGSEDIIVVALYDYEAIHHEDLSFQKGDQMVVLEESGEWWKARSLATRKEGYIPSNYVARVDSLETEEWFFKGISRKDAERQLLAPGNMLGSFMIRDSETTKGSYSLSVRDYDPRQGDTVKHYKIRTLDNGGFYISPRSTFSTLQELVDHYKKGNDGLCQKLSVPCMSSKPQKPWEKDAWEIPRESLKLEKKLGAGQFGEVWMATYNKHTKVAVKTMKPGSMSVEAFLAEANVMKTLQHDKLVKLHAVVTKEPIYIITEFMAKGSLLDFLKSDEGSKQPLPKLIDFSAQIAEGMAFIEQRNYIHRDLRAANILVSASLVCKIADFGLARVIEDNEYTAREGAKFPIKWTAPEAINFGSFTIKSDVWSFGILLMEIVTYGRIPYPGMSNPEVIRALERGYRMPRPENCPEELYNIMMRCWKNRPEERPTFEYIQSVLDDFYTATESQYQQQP
Sequence of WNK2(h) (Q9Y3S1 whole entry): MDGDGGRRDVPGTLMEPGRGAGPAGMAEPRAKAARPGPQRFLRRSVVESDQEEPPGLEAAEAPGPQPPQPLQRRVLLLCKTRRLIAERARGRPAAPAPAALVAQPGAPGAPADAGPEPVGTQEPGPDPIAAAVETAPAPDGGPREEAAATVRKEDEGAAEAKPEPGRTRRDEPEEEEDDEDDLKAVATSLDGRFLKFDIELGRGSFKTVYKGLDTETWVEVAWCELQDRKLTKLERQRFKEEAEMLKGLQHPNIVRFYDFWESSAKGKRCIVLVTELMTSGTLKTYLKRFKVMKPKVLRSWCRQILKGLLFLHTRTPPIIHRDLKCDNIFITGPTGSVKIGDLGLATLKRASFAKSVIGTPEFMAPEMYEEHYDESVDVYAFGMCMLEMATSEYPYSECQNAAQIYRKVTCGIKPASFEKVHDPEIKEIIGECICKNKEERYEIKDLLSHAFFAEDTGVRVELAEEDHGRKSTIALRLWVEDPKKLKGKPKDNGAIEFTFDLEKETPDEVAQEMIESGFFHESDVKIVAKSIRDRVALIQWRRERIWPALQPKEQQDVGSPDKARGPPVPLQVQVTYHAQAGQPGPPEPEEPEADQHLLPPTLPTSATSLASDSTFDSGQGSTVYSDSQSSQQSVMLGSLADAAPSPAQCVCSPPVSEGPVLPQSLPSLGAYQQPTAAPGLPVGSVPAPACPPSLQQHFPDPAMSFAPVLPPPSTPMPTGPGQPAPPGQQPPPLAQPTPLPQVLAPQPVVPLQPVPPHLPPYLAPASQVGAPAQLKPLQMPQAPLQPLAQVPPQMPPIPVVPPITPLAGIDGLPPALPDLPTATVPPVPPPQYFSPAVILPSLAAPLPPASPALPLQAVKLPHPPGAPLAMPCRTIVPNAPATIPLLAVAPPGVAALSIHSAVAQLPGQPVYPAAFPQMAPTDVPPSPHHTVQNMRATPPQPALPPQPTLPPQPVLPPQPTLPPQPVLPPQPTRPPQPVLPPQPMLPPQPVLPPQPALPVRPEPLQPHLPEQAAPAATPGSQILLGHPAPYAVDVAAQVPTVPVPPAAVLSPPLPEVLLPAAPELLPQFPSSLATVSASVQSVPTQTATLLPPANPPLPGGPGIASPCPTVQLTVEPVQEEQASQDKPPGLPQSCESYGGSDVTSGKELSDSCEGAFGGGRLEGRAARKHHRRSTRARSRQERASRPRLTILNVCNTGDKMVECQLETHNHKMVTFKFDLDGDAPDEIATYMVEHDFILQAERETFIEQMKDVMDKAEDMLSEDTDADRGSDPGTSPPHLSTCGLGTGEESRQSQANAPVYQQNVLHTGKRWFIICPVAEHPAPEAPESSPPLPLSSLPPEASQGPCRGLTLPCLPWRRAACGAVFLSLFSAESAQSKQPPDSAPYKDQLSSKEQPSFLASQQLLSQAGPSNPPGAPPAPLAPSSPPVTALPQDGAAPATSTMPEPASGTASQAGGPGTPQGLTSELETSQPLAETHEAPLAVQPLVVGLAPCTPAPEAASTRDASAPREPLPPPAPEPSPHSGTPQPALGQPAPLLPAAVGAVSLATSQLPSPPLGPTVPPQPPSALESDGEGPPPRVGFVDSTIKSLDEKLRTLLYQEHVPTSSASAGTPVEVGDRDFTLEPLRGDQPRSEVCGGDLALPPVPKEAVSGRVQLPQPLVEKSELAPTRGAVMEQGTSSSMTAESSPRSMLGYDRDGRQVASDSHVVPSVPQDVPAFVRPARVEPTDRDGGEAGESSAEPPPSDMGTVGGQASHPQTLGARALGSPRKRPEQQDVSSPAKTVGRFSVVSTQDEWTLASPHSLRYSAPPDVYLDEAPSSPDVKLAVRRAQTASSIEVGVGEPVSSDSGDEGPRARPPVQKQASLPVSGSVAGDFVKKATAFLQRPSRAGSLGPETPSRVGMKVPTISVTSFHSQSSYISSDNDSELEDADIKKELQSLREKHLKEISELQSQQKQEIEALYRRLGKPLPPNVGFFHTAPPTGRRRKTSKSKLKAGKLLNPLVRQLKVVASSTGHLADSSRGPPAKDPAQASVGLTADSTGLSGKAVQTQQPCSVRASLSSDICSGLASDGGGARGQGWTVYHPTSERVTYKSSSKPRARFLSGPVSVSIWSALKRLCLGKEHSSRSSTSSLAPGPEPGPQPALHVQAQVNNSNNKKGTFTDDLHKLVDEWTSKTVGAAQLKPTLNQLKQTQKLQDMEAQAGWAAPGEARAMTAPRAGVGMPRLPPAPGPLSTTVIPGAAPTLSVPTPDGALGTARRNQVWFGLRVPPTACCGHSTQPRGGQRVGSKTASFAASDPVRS
Sequence of SAPK2a(h) (Q16539 whole entry): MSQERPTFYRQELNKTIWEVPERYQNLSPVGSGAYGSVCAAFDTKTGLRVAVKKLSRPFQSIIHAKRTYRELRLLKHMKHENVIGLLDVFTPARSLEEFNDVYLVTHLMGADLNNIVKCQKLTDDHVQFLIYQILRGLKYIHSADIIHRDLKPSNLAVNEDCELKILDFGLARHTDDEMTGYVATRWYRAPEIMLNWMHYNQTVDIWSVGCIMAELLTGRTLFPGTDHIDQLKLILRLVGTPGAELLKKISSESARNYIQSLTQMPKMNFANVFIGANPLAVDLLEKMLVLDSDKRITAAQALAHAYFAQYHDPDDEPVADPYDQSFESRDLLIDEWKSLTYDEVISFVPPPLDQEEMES
Sequence of MSK2(h) (O75676 whole entry): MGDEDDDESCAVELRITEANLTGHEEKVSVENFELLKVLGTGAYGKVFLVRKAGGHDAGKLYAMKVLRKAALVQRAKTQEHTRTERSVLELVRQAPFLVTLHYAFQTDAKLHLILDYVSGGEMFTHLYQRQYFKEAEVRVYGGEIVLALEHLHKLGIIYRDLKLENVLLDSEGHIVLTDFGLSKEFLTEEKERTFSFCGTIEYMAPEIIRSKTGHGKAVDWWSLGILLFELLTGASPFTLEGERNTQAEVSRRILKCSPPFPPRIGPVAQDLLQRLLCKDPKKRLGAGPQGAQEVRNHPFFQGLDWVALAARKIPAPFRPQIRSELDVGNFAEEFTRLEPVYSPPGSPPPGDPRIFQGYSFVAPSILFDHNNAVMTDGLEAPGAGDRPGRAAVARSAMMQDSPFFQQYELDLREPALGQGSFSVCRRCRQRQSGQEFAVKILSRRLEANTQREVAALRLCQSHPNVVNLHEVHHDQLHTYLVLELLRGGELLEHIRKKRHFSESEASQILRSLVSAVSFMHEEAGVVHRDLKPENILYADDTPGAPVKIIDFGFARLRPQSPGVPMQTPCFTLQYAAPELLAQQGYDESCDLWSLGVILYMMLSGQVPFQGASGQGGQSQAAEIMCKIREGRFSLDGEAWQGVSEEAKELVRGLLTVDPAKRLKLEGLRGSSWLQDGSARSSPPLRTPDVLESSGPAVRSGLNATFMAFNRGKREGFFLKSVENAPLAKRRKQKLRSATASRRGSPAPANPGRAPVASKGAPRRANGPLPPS

Regarding “YARAAARQARAKALNRQLGVA (Mammalian) [MMI-0200]”, the “WNK2(h) % activity” value in experiment [1] was determined as 94%. Further, in experiment [2], the “PKBα(h) % activity” value was found to be 110%. Moreover, the “JAK2(h) % activity” value in experiment [3] was 131%. In [4], the “ULK3(h) % activity” value is listed as 164%. Also, the “EGFR(h) % activity” value in [5] is given as 83%. Further, the “MSK2(h) % activity” value in experiment [6] is 88%. The “Hck(h) activated % activity” value in experiment [7] was found to be 100%. In addition, in experiment [8], the “Met(D1246N)(h) % activity” value was 149%. For the same sequence, in experiment [9], the “DAPK2(h) % activity” value was found to be 92%. Also, the “Met(h) % activity” value in experiment [10] came to 71%. The “CaMKIIγ(h) % activity” value in experiment [11] turned out to be 94%. For the same sequence, the “NEK3(h) % activity” value in [12] is 100%. Moreover, the “Pyk2(h) % activity” value in [13] stood at 127%. Also, the “PDK1(h) % activity” value in experiment [14] turned out to be 143%. The “Flt1(h) % activity” value in experiment [15] worked out at 96%.
As to “HRRIKAWLKKIKALARQLGVAA (Mammalian) [MMI-0500]”, in [1], the “WNK2(h) % activity” value is reported as 8%. Moreover, the “PKBα(h) % activity” value in experiment [2] is 30%. The “DAPK1(h) % activity” value in experiment [16] is reported as 0%. Moreover, the “Abl(h) % activity” value in experiment [17] amounted to 16%. In experiment [18], the “Plk3(h) % activity” value turned out to be 122%. The “JAK2(h) % activity” value in [3] is listed as 49%. For the same sequence, the “cKit(D816H)(h) % activity” value in experiment [19] came to 194%. Also, the “SAPK2a(h) % activity” value in experiment [20] worked out at 52%. For the same sequence, in [4], the “ULK3(h) % activity” value amounted to 177%. Also, the “EGFR(h) % activity” value in [5] was −1%. The “MSK2(h) % activity” value in experiment [6] is listed as 14%. The “Hck(h) activated % activity” value in experiment [7] is reported as 67%. Moreover, the “Met(D1246N)(h) % activity” value in [8] turned out to be 90%. In addition, the “DAPK2(h) % activity” value in experiment [9] is recorded as 3%. In addition, the “Met(h) % activity” value in experiment [10] turned out to be 27%. The “CaMKIIγ(h) % activity” value in experiment [11] was 3%. In [12], the “NEK3(h) % activity” value was found to be 20%. The “Pyk2(h) % activity” value in [13] worked out at 46%. Further, the “PDK1(h) % activity” value in experiment [14] was 178%. Besides, the “Flt1(h) % activity” value in experiment [15] came to 27%.
Regarding KAFAKLAARLYRKALARQLGVAA [MMI-0400], in experiment [1], the “WNK2(h) % activity” value is listed as 54%. Besides, the “PKBα(h) % activity” value in experiment [2] is 67%. The “DAPK1(h) % activity” value in [16] is 36%. In addition, the “Abl(h) % activity” value in experiment [17] is on record as 84%. Besides, in experiment [18], the “Plk3(h) % activity” value worked out at 129%. Further, the “cKit(D816H)(h) % activity” value in [19] is 143%. Besides, the “SAPK2a(h) % activity” value in [20] is 85%. The “ULK3(h) % activity” value in experiment [4] was found to be 147%. Also, the “EGFR(h) % activity” value in experiment [5] was 16%. Also, in experiment [6], the “MSK2(h) % activity” value amounted to 52%. In experiment [7], the “Hck(h) activated % activity” value stood at 81%. Besides, the “Met(D1246N)(h) % activity” value in experiment [8] was determined as 31%. In experiment [9], the “DAPK2(h) % activity” value stood at 16%. In experiment [10], the “Met(h) % activity” value stood at 62%. Besides, in [11], the “CaMKIIγ(h) % activity” value worked out at 3%. For the same sequence, the “NEK3(h) % activity” value in [12] came to 85%. In addition, the “Pyk2(h) % activity” value in [13] came to 34%. The “PDK1(h) % activity” value in experiment [14] stood at 159%. Besides, the “Flt1(h) % activity” value in [15] was 48%.
Regarding FAKLAARLYRKALARQLGVAA [MMI-0300], the “WNK2(h) % activity” value in experiment [1] amounted to 64%. For the same sequence, the “PKBα(h) % activity” value in experiment [2] stood at 57%. For the same sequence, the “DAPK1(h) % activity” value in [16] is 46%. Further, the “Abl(h) % activity” value in experiment [17] is on record as 69%. Further, the “Plk3(h) % activity” value in experiment [18] stood at 127%. Also, the “JAK2(h) % activity” value in experiment [3] was determined as 133%. Also, the “cKit(D816H)(h) % activity” value in [19] came out at 126%. Besides, in [20], the “SAPK2a(h) % activity” value was 90%. Further, the “ULK3(h) % activity” value in experiment [4] was determined as 167%. In experiment [5], the “EGFR(h) % activity” value is listed as 21%. Moreover, in [6], the “MSK2(h) % activity” value is recorded as 56%. The “Hck(h) activated % activity” value in [7] was 82%. Further, in [8], the “Met(D1246N)(h) % activity” value is 82%. For the same sequence, in experiment [9], the “DAPK2(h) % activity” value is reported as 32%. In addition, the “Met(h) % activity” value in [10] amounted to 65%. The “CaMKIIγ(h) % activity” value in [11] stood at 5%. Also, the “NEK3(h) % activity” value in experiment [12] worked out at 92%. Further, in experiment [13], the “Pyk2(h) % activity” value is 47%. Moreover, the “PDK1(h) % activity” value in [14] was 135%. In addition, the “Flt1(h) % activity” value in [15] was 69%.
